# B1: human MEIG1 (His6 tag cleaved) (natural protein)
# chain: MASSDVKPKSVSHAKKWSEEIENLYRFQQAGYRDETEYRQVKQVSMVDRWPETGYVKKLQRRDNTFYYYNKQRECDDKEVHKVKIYAY
# Molecular target: human PACRG full-length short isoform (PACRG^FL, 257 a.a.) (human, UniProt Q96M98-2 1-257)
# Assay: cross-linking
binder,measurement,value
B1,binding result,binds

# From article PMC8178172 (Structure (London, England : 1993), 2021)
